Test results taken from patent US20250340608A1 (PROTAGONIST THERAPEUTICS, published 2025).
Bridge positions count the residues as written; N and C are the ends. Primed or numbered codes have the meaning given here. Ends that are not written are not given here. * marks the point of attachment. PEG8(3) = PEG8 side chain conjugate on Lys; Isovaleryl = CC(C)CC(=O)*

T1: human ferroportin (SLC40A1) fused in frame with GFP, stably expressed on HEK293 cells (human, UniProt Q9NP59 1-571)
T1 sequence (looked up): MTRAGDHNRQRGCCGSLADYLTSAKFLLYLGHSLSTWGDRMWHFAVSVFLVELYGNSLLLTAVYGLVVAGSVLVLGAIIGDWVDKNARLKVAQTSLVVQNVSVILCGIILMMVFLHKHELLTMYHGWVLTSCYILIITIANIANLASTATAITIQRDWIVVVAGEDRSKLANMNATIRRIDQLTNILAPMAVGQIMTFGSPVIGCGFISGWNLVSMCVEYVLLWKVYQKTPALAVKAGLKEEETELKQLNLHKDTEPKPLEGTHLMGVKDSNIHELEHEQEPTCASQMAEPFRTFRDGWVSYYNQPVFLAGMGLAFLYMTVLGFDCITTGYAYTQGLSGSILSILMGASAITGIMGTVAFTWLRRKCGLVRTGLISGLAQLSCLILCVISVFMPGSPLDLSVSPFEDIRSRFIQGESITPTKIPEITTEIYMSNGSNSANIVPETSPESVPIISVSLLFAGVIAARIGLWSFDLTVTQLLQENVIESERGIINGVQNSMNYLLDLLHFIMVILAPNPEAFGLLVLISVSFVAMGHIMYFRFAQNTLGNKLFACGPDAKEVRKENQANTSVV

T2: human ferroportin (SLC40A1) fused in frame with GFP, stably expressed in HEK293 cells (human, UniProt Q9NP59 1-571)
T2 sequence (looked up): T1 sequence (looked up)

B1: Compound 349 (peptide)
peptide: Isovaleryl-DTHFPCIKF-NH2
modifications: also: homodimer with IDA-(β-Ala)-Palm linking moiety, attachment site not given here
B2: Compound 352 (peptide)
peptide: Isovaleryl-DTHFPCIIFGPRSRGWVCK-NH2
modifications: disulfide 6-18 (inferred); not fully specified (residue 19); also: dimer through DIG linker on εN of Lys19 of each monomer

Target: T1, human ferroportin (SLC40A1) fused in …
Assay: cell-based or functional assay

Compared with H-DTHFPCIIA-NH2 [Compound 278 (DTHFPCIIA-NH2)], H-DTAFPCIIF-NH2 [Compound 283 (DTAFPCIIF-NH2)] is lower in “EC50 (nM) (n > 3)” value: greater than 1000 nM for the first, 739 nM for the second.

Compared with H-DTHFPCAIF-NH2 [Compound 279 (DTHFPCAIF-NH2)], H-DTHFPCIAF-NH2 [Compound 51 (DTHFPCIAF-NH2)] is lower in “EC50 (nM) (n > 3)” value: greater than 1000 nM for the first, 382 nM for the second.

Compared with H-DAHFPCIIF-NH2 [Compound 52 (DAHFPCIIF-NH2)], H-ATHFPCIIF-NH2 [Compound 284 (ATHFPCIIF-NH2)] is higher in “EC50 (nM) (n > 3)” value: 388 nM for the first, greater than 1000 nM for the second.

H-DTHFACIIF-NH2 [Compound 280 (DTHFACIIF-NH2)] was tested, and the “EC50 (nM) (n > 3)” value was greater than 1000 nM.

Target: T2, human ferroportin (SLC40A1) fused in …
Assay: cell-based or functional assay

Isovaleryl-DTHFPCIKFEPRSKGCK-NH2 (not fully specified (bridges); cysteine pairing not given here) [Compound 184] and Isovaleryl-DTHFPCIKFGPRSKGWVCK(PEG8(3))-NH2 (not fully specified (bridges); cysteine pairing not given here) [Compound 153] are within 1.5-fold of each other in “In Vitro Activity EC50” value: 0.016 µM for the first, 0.018 µM for the second.

Isovaleryl-DTHFPICIFGPRSK(PEG8(3))GWVC-NH2 (not fully specified (bridges); cysteine pairing not given here) [Compound 176] and DTHFPCIKFKPRSKGWVCK (not fully specified; N-terminal isovaleric acid; K10(PEG8); C-terminal NH2) [Compound 150] are within 1.5-fold of each other in “In Vitro Activity EC50” value: 0.006 µM for the first, 0.007 µM for the second.

Isovaleryl-DTHFPCIKFEPRSKGWVCK-NH2 (not fully specified (bridges); cysteine pairing not given here) [Compound 181] was tested, and the “In Vitro Activity EC50” value was 0.015 µM.

Target: T2, human ferroportin (SLC40A1) fused in …
Assay: cell-based or functional assay
Remark: another data set of the same source

Compared with H-DTHFPCIKF-NH2 (also: homodimer with IDA-(β-Ala) linking moiety, attachment site not given here) [Compound 348], DTHFPCIKF-NH2 (not fully specified; printed as [PEG25]-(DTHFPCIKF-NH2)2) [Compound 351] is higher in “Log dilutions EC50 (nM) (n > 3)” value: 18 nM for the first, greater than 1000 nM for the second.

Going from Isovaleryl-DTHFPCIKFK-NH2 (also: homodimer linked by DIG linker through Lys10 of each monomer) [Compound 346] to B1, the “Log dilutions EC50 (nM) (n > 3)” value falls from 15 nM to 5 nM.

Target: T2, human ferroportin (SLC40A1) fused in …
Assay: cell-based or functional assay
Remark: another data set of the same source

In the case of B2, the “Log dilutions EC50 (nM) (n > 3)” value is reported as 5 nM.
